Assay [1] has as its target T1, 人OX40胞外区重组蛋白(OX40-His) (human, UniProt P43489 29-214).
T1 construct: extracellular domain; also called 人OX40重组蛋白(10481-H08H，北京义翘神州); 人OX40胞外区融合蛋白; not shown: His tag
T1 sequence (looked up): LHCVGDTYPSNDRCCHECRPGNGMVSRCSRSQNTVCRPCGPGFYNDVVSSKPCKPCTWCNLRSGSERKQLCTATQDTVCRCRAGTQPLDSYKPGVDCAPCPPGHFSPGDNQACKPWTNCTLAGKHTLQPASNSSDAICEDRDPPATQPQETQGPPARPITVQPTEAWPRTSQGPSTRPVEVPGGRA
Nature of the assay: ELISA, OX40-His coated.

Assay [2] concerns the target T1, 人OX40胞外区重组蛋白(OX40-His). Nature of the assay: ELISA, OX40-His coated at 1 ug/mL, anti-human Fc-HRP detection. Background: An ELISA detects its analyte on a solid surface through an enzyme-linked reagent.
Assay [3] concerns the target T1, 人OX40胞外区重组蛋白(OX40-His). The assay is described as follows: BLI (Octet QKe), antibody captured on AHC probe, antigen in solution, 1:1 Langmuir fit.
In assay [4] the target is T2, 人PD-L1胞外区重组蛋白(PD-L1-His) (human, UniProt Q9NZQ7 19-238).
T2 construct: extracellular domain; also called 人PD-L1重组蛋白(10084-H08H，北京义翘神州); 人PD-L1胞外区融合蛋白; not shown: His tag
The description is as above.

The target in assay [5] is T3, human OX40 on HT1080-hOX40 cells (human, UniProt P43489 29-277).
T3 sequence (looked up): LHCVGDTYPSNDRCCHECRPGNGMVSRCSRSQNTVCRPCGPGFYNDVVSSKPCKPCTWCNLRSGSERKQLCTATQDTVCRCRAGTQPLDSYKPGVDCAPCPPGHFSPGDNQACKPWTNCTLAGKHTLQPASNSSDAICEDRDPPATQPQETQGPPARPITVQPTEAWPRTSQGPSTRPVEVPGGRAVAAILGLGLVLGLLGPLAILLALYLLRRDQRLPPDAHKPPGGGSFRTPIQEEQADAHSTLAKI
The assay is described as follows: cell-based or functional assay.

Assay [6] deals with PD-L1 on CHO-PD-L1-CD3L cells (UniProt Q9NZQ7 19-290, limits assumed). Nature of the assay: cell-based or functional assay.
Assay [7] concerns the target T4, PD-L1-mFc (UniProt Q9NZQ7 19-238, limits assumed).
T4 construct: also called 重组PD-L1; not shown: mouse Fc (mFc)
Nature of the assay: competition ELISA: PD-1-hFc coated, PD-L1-mFc 1 ug/ml in solution, blocking of PD-L1 binding to PD-1.

The target in assay [8] is T2, 人PD-L1胞外区重组蛋白(PD-L1-His). The assay is described as follows: ELISA, PD-L1-His coated at 1 ug/mL, anti-human Fc-HRP detection.

T2 sequence (Q9NZQ7 19-238): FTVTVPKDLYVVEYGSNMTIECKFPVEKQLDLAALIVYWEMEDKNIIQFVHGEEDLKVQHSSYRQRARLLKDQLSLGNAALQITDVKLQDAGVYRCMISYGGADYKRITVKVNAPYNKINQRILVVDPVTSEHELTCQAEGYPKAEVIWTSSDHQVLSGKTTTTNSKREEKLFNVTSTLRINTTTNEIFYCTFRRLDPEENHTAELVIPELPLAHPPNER
T4 sequence (Q9NZQ7 19-238 limits assumed): as the sequence (Q9NZQ7 19-238) above
PD-L1 on CHO-PD-L1-CD3L cells, sequence (Q9NZQ7 19-290 limits assumed): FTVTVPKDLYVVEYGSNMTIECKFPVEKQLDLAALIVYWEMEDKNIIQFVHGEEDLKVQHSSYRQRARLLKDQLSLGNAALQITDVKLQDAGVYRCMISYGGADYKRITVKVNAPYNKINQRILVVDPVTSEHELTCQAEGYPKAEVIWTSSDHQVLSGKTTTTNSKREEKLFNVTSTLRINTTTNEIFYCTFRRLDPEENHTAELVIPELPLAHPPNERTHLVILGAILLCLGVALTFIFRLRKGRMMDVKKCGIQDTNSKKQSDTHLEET

B1: 抗OX40人源化抗体hz25A7 (antibody, V domains shown)
VH: EVQLVESGGGLVQPGRSLRLSCAASGFTFSSHDMSWVRQAPGKGLELVAAINSEGGRIYYPDTMERRFTISRDNSKNTLYLQMNSLRAEDTAVYYCARHYDNYAWFAYWGQGTLVTVSS
VL: DIQMTQSPSSLSASVGDRVTITCRASKSVSTSGSSYIHWYQQKPGKAPKLLIYLASNLESGVPSRFSGSGSGTDFTLTISSLQPEDFATYYCQHSRELPLTFGGGTKVEIK
notes: Parental humanised anti-OX40 monoclonal antibody (from CN202010063141.3); also called 单抗hz25A7
Take B1: in assay [1], the binding result is given as “binds”.

B2: hz25A7-hzF2 (bispecific antibody, human IgG1, kappa)
heavy: not shown
light: DIQMTQSPSSLSASVGDRVTITCRASKSVSTSGSSYIHWYQQKPGKAPKLLIYLASNLESGVPSRFSGSGSGTDFTLTISSLQPEDFATYYCQHSRELPLTFGGGTKVEIKRTVAAPSVFIFPPSDEQLKSGTASVVCLLNNFYPREAKVQWKVDNALQSGNSQESVTEQDSKDSTYSLSSTLTLSKADYEKHKVYACEVTHQGLSSPVTKSFNRGEC
notes: Symmetric four-chain molecule (two of peptide chain 1, two of peptide chain 2); expressed in HEK293, purified on Protein A; also called 抗PD-L1/OX40双特异性抗体 hz25A7-hzF2; OX40/PD-L1双特异性抗体
B2: the EC50 is 0.0877 nM in assay [2] and 0.563 nM in assay [8]. For the same molecule, the Kd was 5 nM in assay [3] and 1 nM in assay [4]. The “刺激HT1080-huOX40细胞表达IL8活性, EC50” value in assay [5] was 0.247 µg/mL. In assay [6], the “对PD-1/PD-L1信号通路的阻断活性 (Jurkat-PD1-NFAT / CHO-PD-L1-CD3L luciferase reporter), IC50” value came out at 4.75 nM. The molecule also showed an IC50 in assay [7] of 6.84 nM.

B3: hz27G12-hzF2 (bispecific antibody, human IgG1, kappa)
heavy: not shown
light: EIVMTQSPATLSVSPGERATLSCKASQSVDYEGDSYMNWYQQKPGQAPKLLIYAASNLESGIPARFSGSGSGTDFTLTISSLEPEDFATYYCQQSNEDPYTFGGGTKVEIKRTVAAPSVFIFPPSDEQLKSGTASVVCLLNNFYPREAKVQWKVDNALQSGNSQESVTEQDSKDSTYSLSSTLTLSKADYEKHKVYACEVTHQGLSSPVTKSFNRGEC
notes: Symmetric four-chain molecule (two of peptide chain 1, two of peptide chain 2); expressed in HEK293, purified on Protein A; also called 抗PD-L1/OX40双特异性抗体 hz27G12-hzF2; OX40/PD-L1双特异性抗体
In the case of B3, the EC50 turned out to be 0.0781 nM in assay [2] and 0.651 nM in assay [8]. In addition, the dissociation constant (Kd) was found to be 8 nM in assay [3] and 1.3 nM in assay [4]. Besides, the “刺激HT1080-huOX40细胞表达IL8活性, EC50” value in assay [5] came out at 2.28 µg/mL. The “对PD-1/PD-L1信号通路的阻断活性 (Jurkat-PD1-NFAT / CHO-PD-L1-CD3L luciferase reporter), IC50” value in assay [6] turned out to be 3.38 nM. In assay [7], the concentration for half-maximal inhibition (IC50) came out at 7.12 nM.

B4: 抗OX40人源化抗体hz27G12 (antibody, V domains shown)
VH: EVQLVQSGAEVKKPGASVKVSCKASGYTFTEYIIHWVRQAPGQGLEWIGWFYPESGSIKYNEKFKDRVTITRDTSTSTVYMELSSLRSEDTAVYYCARHEDPITFAYWGQGTLVTVSS
VL: EIVMTQSPATLSVSPGERATLSCKASQSVDYEGDSYMNWYQQKPGQAPKLLIYAASNLESGIPARFSGSGSGTDFTLTISSLEPEDFATYYCQQSNEDPYTFGGGTKVEIK
notes: Parental humanised anti-OX40 monoclonal antibody (from CN202010063141.3); also called 单抗hz27G12
As to B4, the binding result in assay [1] was “binds”.

As a reminder, the EC50 is the concentration at which the effect is half-maximal. A low value points to greater potency. As usually defined, the Kd is the concentration at which binding is half-saturated. A higher Kd goes with weaker binding. A word on the IC50: it is the midpoint of a concentration-inhibition curve. Read a high IC50 as a need for much substance.
